# From patent US20200299370A1 (UNIVERSITY OF FLORIDA RESEARCH FOUNDATION, published 2020)
# T1: phosphopeptide DRSGYSpSPGpSPGpTPGSRSR (p193-211) (human, phosphoserine at residues 7 and 10 and phosphothreonine at 13 (S199, S202, T205 of 2N/4R tau); C residue added at the carboxy-terminus)
# T1 construct: Unconjugated synthetic peptide coated on ELISA plates; also called tau peptide p193-211
# T1 peptide: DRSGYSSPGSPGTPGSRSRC
# Experiments:
# [1] = target: T2, WT 0N/3R human tau phosphorylated in vitro with p42 MAPK or GSK3β (human, UniProt P10636 2-758, phosphorylated in vitro with p42 MAPK or with GSK3β; T205 (2N/4R numbering) phosphorylated by both, other sites not stated); assay: immunoblot, recombinant 0N/3R tau
# T2 construct: recombinant, E. coli BL21; also called phosphorylated tau
# Protocol: (§1) WT, S199A, 5202A and T205A 0N/3R tau (mutants numbered according to 2N/4R human tau) were incubated with p42 MAPK or GSK3β or without any kinase as described in “Material and Methods”. […] The mobilities of molecular mass markers are shown on the left.
# (§2) Tau proteins (0.2 mg/ml) were phosphorylated with either glycogen synthase kinase 3β (GSK3β; 2.5 U/μl; New England Biolabs, Ipswich, Mass.) or p42 mitogen-activated protein kinase (MAPK; 0.5 U/μl; New England Biolabs, Ipswich, Mass.) in 50 mM Tris, pH 7.5, 10 mM MgCl₂, 0.1 mM EDTA, 2 mM DTT, 0.1% Brij 35, ATP 200 μM for 2 hours at 30° C. followed by heat inactivation at 95° C. for 5 minutes. Samples were diluted in SDS-sample buffer and 100 ng of each tau protein was loaded on a separate lane on SDS-polyacrylamide gels for immunoblot analysis.
# (§3) To determine the specificity of these monoclonal antibodies, WT, S199A, 5202A and T205A 0N/3R human tau (mutations numbered according to the sequence of 2N/4R human tau) were phosphorylated with p42 MAPK or GSK3β and immunoblotting analysis was performed (FIG. 3).
# [2] = target: T3, WT 0N/3R human tau, non-phosphorylated (incubated without any kinase) (human, UniProt P10636 2-758); assay: immunoblot, recombinant 0N/3R tau
# T3 construct: Recombinant, E. coli BL21; also called non-phosphorylated tau
# Protocol: as §1, §2, §3
# [3] = target: T1, phosphopeptide DRSGYSpSPGpSPGpTPGSRSR …; assay: ELISA, hybridoma medium on plates coated with the unconjugated immunising peptide
# [4] = target: T4, full-length S404A 2N/4R human tau phosphorylated in vitro with GSK3β (human, UniProt P10636 2-758, phosphorylated in vitro with GSK3β; sites not stated); assay: immunoblot, recombinant tau phosphorylated in vitro
# T4 construct: Recombinant, E. coli BL21; also called S404A tau; 5404A
# Protocol: as §2
# (§4) To determine the specificity of these monoclonal antibodies, full-length WT, S396A and 5404A 2N/4R human tau were in vitro phosphorylated with known tau kinases (p42 MAPK or GSK3β) and used these tau proteins for immunoblotting analysis (FIG. 1).
# [5] = target: T5, full-length S396A 2N/4R human tau phosphorylated in vitro with GSK3β (human, UniProt P10636 2-758, phosphorylated in vitro with GSK3β; sites not stated); assay: as above
# T5 construct: Recombinant, E. coli BL21; also called S396A tau
# Protocol: as §2, §4
# [6] = target: T6, T205A 0N/3R human tau phosphorylated in vitro with p42 MAPK or GSK3β (human, UniProt P10636 2-758, phosphorylated in vitro with p42 MAPK or with GSK3β; sites not stated); assay: immunoblot, recombinant 0N/3R tau phosphorylated in vitro
# T6 construct: Two preparations, one for each kinase; also called phosphorylated T205A tau
# Protocol: as §1, §2, §3
# T6 sequence (P10636 other isoform, or with tags, fused parts or gaps T205A T205A limits assumed): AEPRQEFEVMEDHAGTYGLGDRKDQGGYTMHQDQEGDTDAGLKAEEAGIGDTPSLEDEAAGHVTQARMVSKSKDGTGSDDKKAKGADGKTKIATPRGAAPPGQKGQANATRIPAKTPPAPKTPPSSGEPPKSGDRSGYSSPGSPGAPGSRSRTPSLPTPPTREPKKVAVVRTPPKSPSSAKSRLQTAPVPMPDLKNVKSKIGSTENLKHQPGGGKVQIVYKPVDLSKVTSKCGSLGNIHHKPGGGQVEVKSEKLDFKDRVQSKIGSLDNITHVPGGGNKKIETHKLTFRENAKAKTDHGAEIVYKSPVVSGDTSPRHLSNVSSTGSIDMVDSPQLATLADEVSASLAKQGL
# T5 sequence (P10636 other isoform, or with tags, fused parts or gaps S396A S396A limits assumed): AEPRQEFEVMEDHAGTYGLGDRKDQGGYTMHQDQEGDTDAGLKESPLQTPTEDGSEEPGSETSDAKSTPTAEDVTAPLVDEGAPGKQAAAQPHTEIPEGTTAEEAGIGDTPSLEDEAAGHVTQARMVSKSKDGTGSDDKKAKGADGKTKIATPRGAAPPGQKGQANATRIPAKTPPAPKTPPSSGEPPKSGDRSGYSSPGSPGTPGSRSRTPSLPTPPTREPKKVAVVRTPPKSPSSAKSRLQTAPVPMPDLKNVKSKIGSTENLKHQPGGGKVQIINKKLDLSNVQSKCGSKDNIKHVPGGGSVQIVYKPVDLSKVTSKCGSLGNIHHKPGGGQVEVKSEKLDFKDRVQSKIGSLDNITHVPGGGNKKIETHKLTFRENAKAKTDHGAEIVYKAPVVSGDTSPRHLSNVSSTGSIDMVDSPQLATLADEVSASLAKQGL
# T4 sequence (P10636 other isoform, or with tags, fused parts or gaps S404A S404A limits assumed): as the sequence (P10636 other isoform, or with tags, fused parts or gaps S396A S396A limits assumed) above, with A395S, S403A counted along it
# T3 sequence (P10636 other isoform, or with tags, fused parts or gaps limits assumed): as the sequence (P10636 other isoform, or with tags, fused parts or gaps T205A T205A limits assumed) above, with A146T counted along it
# T2 sequence (P10636 other isoform, or with tags, fused parts or gaps limits assumed): as the sequence (P10636 other isoform, or with tags, fused parts or gaps T205A T205A limits assumed) above, with A146T counted along it
binding result [4],binding result [5],binding result [6],Binder,further results
,,,"2D1 (antibody, V domains shown, also called clone 2D1) VH: EVKLVESGGGLVQPGGSLRLSCATSGFTFTDFSMNWVRQPPGKALEWLGCVRDRAEGYTTEYSASVQGRFTISRDNSQSILYLQMNTLRPEDSATYYCARERAFAYWGQGTLVTVSA VL: DIVMSQSPSSLAVSAGEKVTMSCKSSQSLLYSRNQKNYLAWYQQRPGQSPKLLIYWASSRESGVSDRFTGSGSGTDFTLTISSVKADDLAVYYCQQYYKSPLTFGAGTKLELKR",binding result [1]: binds; binding result [2]: binds; binding result [3]: binds
no binding,no binding,,"PHF15 (antibody, V domains shown) VH: EVQLVESGGGSVKPGGSLKLSCAASGFTFSSYALSWVRQTPEKRLEWVASITSGGSYTYFPDSVKGRFTISRDNAKNTLYLQMSSLRSEDTAMYYCTRPGNYDGAWCAYWGQGTLVTVSS VL: DILLTQSPAILSVSPGERDSFSCRASQNIGTSIHWYQQRTNGSPRLLIKYASESISGIPSRFSGSGSGTDFTLSVNSVESEDVADYYCQQTKTWPTTFGAGTKLDLK",
no binding,no binding,,"PHF2 (antibody, V domains shown) VH: EVQLVESGGGSVKPGGSLKLSCAASGFTFSSYAMSWVRQTPEKRLEWVASITRGGSYTYFPDSVKGRFTISRDNTKDTLYLQMSSLRSEDTAMYYCTRQGNYDGAWCDYWGQGTLVTVSA VL: DILLTQSPAILSVSPGERVSFSCRASQNIGTSIHWYQQRTNGSPRLLIKYTSESISGIPSRFGGSGSGTDFTLSVNGVESEDVADYYCQQTKTWPTTFGAGTKLELKR",
,,no binding,"7F2 (antibody, V domains shown, also called clone 7F2) VH: QVQLQQSGAELVQPGGSMKLSCVASGFTFSNYWMNWVRQSPETGLEWVAEIRLKSYNYATHYAESVTGRFTISRDDSKNRVYLQMNNLGPDDTGIYYCTTGGAYHPFDYWGQGTTLTVSS VL: EIVLTQSIPSLTVSAGERVTINCKSNQNLLWSGNQRYCLVWHQWKPGQTPTPLITWTSDRYSGVPDRFIGGGSVTDFTLTISSVQAEDVALYFCQHHLHIPPWTFGGGTKLEIKR",
,,no binding,"6G12 (antibody, V domains shown) VH: EVNLEESGGGLVQPGGSMKLSCVASGFTFSDYWMNWVRQSPEKGLEWVAEIRLKSDNFATHYAESVKGRFTISRDDSKSSVYLQTNNLRAEDTGIYYCTLMRGDYGAEFAYWGQGTLAIVSA VL: DIVMSQSPSSLAVSVGEKVTLTCKSSRSLLYRGNQENFLAWYQQKPGQSPKLLIYWASTRESGVPDRFTGSGSGTDFTLTINSVKAEDLAVYYCQQYYTYPYTFGGGTKLEIKR",
,,no binding,"10G12 (antibody, V domains shown, also called 10G2) VH: EVKLEESGGGLVQPGGSMKLSCVASGFTFSNYWMNWVRQSPETGLEWVAEIRLKSYNYATHYAESVTGRFTISRDDSKNRVYLQMNNLGPDDTGIYYCTTGGAYHPFDYWGQGTTLTVSS VL: DIVMSQSPSSLAVSVGEKVTMTCKSSQSLLYRNNQKNYLAWYQQKPGQSPKLLIYWASTRESGVPDRFTGSGSGTDFTLTISSVKAEDLAVYYCQQYYTYPYTFGGGTKLEIKR",
